For data set [1], the target named is BRIL-fused human Cx36 (cytoplasmic loop residues 109-187 replaced with cytochrome b562RIL) (UniProt Q9UKL4). Kind of data set: cryo-EM structure; single-particle cryo-EM of the purified gap junction channel in LMNG/CHS detergent; D6 symmetry; 50 mM phenylalanine added for Cx36-WT.
Data set [2] deals with the molecule itself. Kind of data set: cryo-EM structure; single-particle cryo-EM of the purified gap junction channel in MSP1E1 nanodiscs with soybean polar lipid extract; D6, C6 or C1 symmetry; 50 mM phenylalanine added for Cx36-WT.
Data set [3] concerns the molecule itself. Kind of data set: cryo-EM structure; single-particle cryo-EM of the purified gap junction channel in LMNG/CHS detergent; D6 symmetry; 50 mM phenylalanine added for Cx36-WT.

The text below walks through data of PMC10008584, “Cryo-EM structures of human Cx36/GJD2 neuronal gap junction channel” (Nature Communications, 2023).

The term stoichiometry N denotes the number of molecules, sites or subunits per partner or assembly.

In data set [1], “BRIL-fused human Cx36 (cytoplasmic loop residues 109-187 replaced with cytochrome b562RIL) (from UniProt Q9UKL4 1-108; P0ABE7 21-128; Q9UKL4 188-321)” returned a stoichiometry N of 12.

B1: Human Cx36 with N-terminal residues 2-8 deleted (natural protein, UniProt Q9UKL4 1-321, looked up)
chain: MRLLEAAVQQHSTMIGRILLTVVVIFRILIVAIVGETVYDDEQTMFVCNTLQPGCNQACYDRAFPISHIRYWVFQIIMVCTPSLCFITYSVHQSAKQRERRYSTVFLALDRDPPESIGGPGGTGGGGSGGGKREDKKLQNAIVNGVLQNTENTSKETEPDCLEVKELTPHPSGLRTASKSKLRRQEGISRFYIIQVVFRNALEIGFLVGQYFLYGFSVPGLYECNRYPCIKEVECYVSRPTEKTVFLVFMFAVSGICVVLNLAELNHLGWRKIKLAVRGAQAKRKSIYEIRNKDLPRVSVPNFGRTQSSDSAYV
notes: Connexin 36 (Cx36, GJD2), human, full length with 7 N-terminal residues (2-8) deleted; Made by PCR from pXY-Cx36-WT; expressed and purified by the same protocol as Cx36-WT; also called Cx36-ΔN8; Cx36_(Nano)-ΔN8; source: HEK293E, transiently transfected, purified as Cx36-WT; reconstituted in MSP1E1 soybean lipid nanodiscs; not shown: eYFP, C-terminal, cleaved; 10xHis, C-terminal, cleaved; copies: …
In the case of B1, in data set [2], the binding result is listed as “binds”.

B2: Wild-type human connexin 36 (Cx36/GJD2) gap junction channel (natural protein, UniProt Q9UKL4 1-321, looked up)
chain: MGEWTILERLLEAAVQQHSTMIGRILLTVVVIFRILIVAIVGETVYDDEQTMFVCNTLQPGCNQACYDRAFPISHIRYWVFQIIMVCTPSLCFITYSVHQSAKQRERRYSTVFLALDRDPPESIGGPGGTGGGGSGGGKREDKKLQNAIVNGVLQNTENTSKETEPDCLEVKELTPHPSGLRTASKSKLRRQEGISRFYIIQVVFRNALEIGFLVGQYFLYGFSVPGLYECNRYPCIKEVECYVSRPTEKTVFLVFMFAVSGICVVLNLAELNHLGWRKIKLAVRGAQAKRKSIYEIRNKDLPRVSVPNFGRTQSSDSAYV
notes: Connexin 36 (Cx36, GJD2), human, full length (Met1-Val321); The tags were cut off at an HRV 3C site between Cx36 and eYFP; residues of the site may be left at the C-terminus; also called Cx36-WT; Cx36_(LMNG)-WT; source: HEK293E, transiently transfected, purified (Rho-1D4 antibody resin, HRV 3C cleavage, Superose 6 Increase SEC); in LMNG/CHS or reconstituted in MSP1E1 soybean lipid nanodiscs; not …
As to B2, the “stoichiometry N” value in data set [3] stood at 12.
